The text below walks through data of patent US20180327473A1 (published 2018).

T1: human alpha fetoprotein (hAFP158) peptide on HLA-A2 (human)
T1 peptide: FMNKFIYEI

B1: mTCR-1 (TCR, V domains shown)
Valpha: QQKVQQSPESLIVPEGGMASLNCTSSDRNVDYFWWYRQHSGKSPKMLMSIFSNGEKEEGRFTVHLNKASLHTSLHIRDSQPSDSALYLCAASITNAYKVIFGKGTHLHVLP
Vbeta: EAAVTQSPRNKVTVTGGNVTLSCRQTNSHNYMYWYRQDTGHGLRLIHYSYGAGNLQIGDVPDGYKATRTTQEDFFLLLELASPSQTSLYFCASSDAGTSQNTLYFGAGTRLSVL
B2: mTCR-6 (TCR, V domains shown)
Valpha: QQKVQQSPESLIVPEGGMASLNCTSSDRNVDYFWWYRQHSGKSPKMLMSIFSNGEKEEGRFTVHLNKASLHTSLHIRDSQPSDSALYLCAASMINAYKVIFGKGTHLHVLP
Vbeta: EAAVTQSPRNKVTVTGGNVTLSCRQTNSHNYMYWYRQDTGHGLRLIHYSYGAGNLQIGDVPDGYKATRTTQEDFFLLLELASPSQTSLYFCASSDAGVSQNTLYFGAGTRLSVL
B3: mTCR-10 (TCR, V domains shown)
Valpha: QQKVQQSPESLIVPEGGMASLNCTSSDRNVDYFWWYRQHSGKSPKMLMSIFSNGEKEEGRFTVHLNKASLHTSLHIRDSQPSDSALYLCAASIVGGYKVVFGSGTRLLVSP
Vbeta: EAAVTQSPRNKVTVTGGNVTLSCRQTNSHNYMYWYRQDTGHGLRLIHYSYGAGNLQIGDVPDGYKATRTTQEDFFLLLELASPSQTSLYFCASSDHGTGQNTLYFGAGTRLSVL
B4: mTCR-8 (TCR, V domains shown)
Valpha: QQKVQQSPESLIVPEGGMASLNCTSSDRNVDYFWWYRQHSGKSPKMLMSIFSNGEKEEGRFTVHLNKASLHTSLHIRDSQPSDSALYLCAASISGGYKVVFGSGTRLLVSP
Vbeta: EAAVTQSPRNKVTVTGGNVTLSCRQTNSHNYMYWYRQDTGHGLRLIHYSYGAGNLQIGDVPDGYKATRTTQEDFFLLLELASPSQTSLYFCASSDAGTSQNTLYFGAGTRLSVL
B5: mTCR-17 (TCR, V domains shown)
Valpha: QQKVQQSPESLIVPEGGMASLNCTSSDRNVDYFWWYRQHSGKSPKMLMSIFSNGEKEEGRFTVHLNKASLHTSLHIRDSQPSDSALYLCAASMTGGYKVVFGSGTRLLVSP
Vbeta: EAAVTQSPRNKVTVTGGNVTLSCRQTNSHNYMYWYRQDTGHGLRLIHYSYGAGNLQIGDVPDGYKATRTTQEDFFLLLELASPSQTSLYFCASSDAGTSQNTLYFGAGTRLSVL
B6: mTCR-38 (TCR, V domains shown)
Valpha: QQKVQQSPESLIVPEGGMASLNCTSSDRNVDYFWWYRQHSGKSPKMLMSIFSNGEKEEGRFTVHLNKASLHTSLHIRDSQPSDSALYLCAATLTGGYKVVFGSGTRLLVSP
Vbeta: EAAVTQSPRNKVTVTGGNVTLSCRQTNSHNYMYWYRQDTGHGLRLIHYSYGAGNLQIGDVPDGYKATRTTQEDFFLLLELASPSQTSLYFCASSDAGTSQNTLYFGAGTRLSVL
B7: mTCR-2 (TCR, V domains shown)
Valpha: QQKVQQSPESLIVPEGGMASLNCTSSDRNVDYFWWYRQHSGKSPKMLMSIFSNGEKEEGRFTVHLNKASLHTSLHIRDSQPSDSALYLCAASTVNAYKVIFGKGTHLHVLP
Vbeta: EAAVTQSPRNKVTVTGGNVTLSCRQTNSHNYMYWYRQDTGHGLRLIHYSYGAGNLQIGDVPDGYKATRTTQEDFFLLLELASPSQTSLYFCASSDAGTSQNTLYFGAGTRLSVL
B8: mTCR-11 (TCR, V domains shown)
Valpha: QQKVQQSPESLIVPEGGMASLNCTSSDRNVDYFWWYRQHSGKSPKMLMSIFSNGEKEEGRFTVHLNKASLHTSLHIRDSQPSDSALYLCAASKTGGYKVVFGSGTRLLVSP
Vbeta: EAAVTQSPRNKVTVTGGNVTLSCRQTNSHNYMYWYRQDTGHGLRLIHYSYGAGNLQIGDVPDGYKATRTTQEDFFLLLELASPSQTSLYFCASSDAGTSQNTLYFGAGTRLSVL
B9: mTCR-3 (TCR, V domains shown)
Valpha: QQKVQQSPESLIVPEGGMASLNCTSSDRNVDYFWWYRQHSGKSPKMLMSIFSNGEKEEGRFTVHLNKASLHTSLHIRDSQPSDSALYLCAASMAGGYKVVFGSGTRLLVSP
Vbeta: EAAVTQSPRNKVTVTGGNVTLSCRQTNSHNYMYWYRQDTGHGLRLIHYSYGAGNLQIGDVPDGYKATRTTQEDFFLLLELASPSQTSLYFCASSDAGTAQNTLYFGAGTRLSVL

This experiment concerns the target T1, human alpha fetoprotein (hAFP158) …. In words: multimer staining.
On to B1, for which the binding result is given as “recognises”. As for B2, the entry is “recognises”; as for B3, “recognises”. Then B4, with “recognises”. Then B5, with “recognises”; and B6, with “recognises”. For B7, the binding result is “recognises”.

For B8, the binding result was “recognises”. As for B9, the entry is “recognises”.
